This is an account of results in paper PMC7315409 (Science translational medicine, 2020).

The target of the experiment is T1, recombinant high mobility group box 1 (HMGB1) (human, UniProt P09429 1-215).
T1 sequence (looked up): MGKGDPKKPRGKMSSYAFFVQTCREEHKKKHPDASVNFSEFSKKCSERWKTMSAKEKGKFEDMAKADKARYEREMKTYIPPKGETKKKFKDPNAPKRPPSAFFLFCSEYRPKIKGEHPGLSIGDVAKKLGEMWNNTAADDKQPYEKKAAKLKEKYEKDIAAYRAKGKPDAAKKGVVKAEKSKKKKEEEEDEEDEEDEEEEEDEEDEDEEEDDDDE
The experiment is described as follows: radioligand binding.

B1: purified syndecan-1 (natural protein)
chain: QIVAVNVPPEDQDGSGDDSDNFSGSGTGALPDTLSRQTPSTWKDVWLLTATPTAPEPTSSNTETAFTSVLPAGEKPEEGEPVLHVEAEPGFTARDKEKEVTTRPRETVQLPITQRASTVRVTTAQAAVTSHPHGGMQPGLHETSAPTAPGQPDHQPPRVEGGGTSVIKEVVEDGTANQLPAGEGSGEQDFTFETSGENTAVAAVEPGLRNQPPVDEGATGASQSLLDRKEVLG
modifications: heparan sulfate (HS) polysaccharide side chains on the core protein
Broadly, the IC50 is the midpoint of a concentration-inhibition curve. Consider B1, for which the IC50 lay within 500 to 550 nM.
